The values that follow come from patent publication US20110118181A1 (INSTITUT DE RECHERHES CLINIQUES DE MONTREAL, published 2011).

For assay [1], the target named is T1, PCSK9-V5 (full-length human PCSK9 with C-terminal V5 tag) (human, UniProt Q8NBP7 31-692).
T1 construct: Used as conditioned medium of CHO-K1 cells (Far Western, pull-down) or co-expressed in cells (co-IP); The background says PCSK9 is secreted as a prosegment-PCSK9 heterodimer; also called full-length (FL) PCSK9-V5; native PCSK9; not shown: C-terminal V5 tag
Briefly: poly-histidine pull-down, AnxA1-(His)6 on cobalt chelate beads, PCSK9-V5 medium. Here is the method:
(§1) FIG. 4. Characterization of the interaction of PCSK9 with AnxA2. (A) PCSK9-V5 Far Western blot of lysates of COS-1 cells, wild type (WT) CHO-K1 cells, CHO-K1 cells overexpressing an empty vector (pIRES), AnxA1 or AnxA2. (B) Poly-histidine pull-down assay. Purified native AnxA2-(His)₆ or AnxA1-(His)₆ were immobilized on cobalt chelate beads and incubated with PCSK9-V5. […] PCSK9 (heavy arrow) and its furin-cleaved form (PCSK9-Δ218; light arrow) were pulled-down by AnxA2. (C) Co-immunoprecipitation experiments of CHO-K1 cells co-transfected with PCSK9-V5 and either AnxA1-HA, AnxA2-HA or with AnxA2-HA and p11. […] Expression of the transfected constructs was analyzed by Western blotting of cell lysates using the anti-V5-HRP or anti-HA-HRP antibodies. (D, left panel) PCSK9-V5 Far Western blots of purified AnxA2-(His)₆ in the absence or presence of reducing agents. Note that in non-reducing conditions, PCSK9-V5 binds both the dimer and monomer forms of AnxA2. (D, right panel) Western blots of the purified AnxA2-(His)₆ using the anti-AnxA2 mAb in non-reducing or reducing conditions. […]
20 μg of purified AnxA2-(His)₆ or AnxA1-(His)₆ or no proteins (for negative control) were immobilized onto a cobalt chelate resin (Thermo Scientific). […] Supernatants were analyzed by Western blot as described above using the anti-V5-HRP or anti-His-HRP antibodies.

Assay [2] deals with T2, purified biotin-conjugated PCSK9 (UniProt Q8NBP7 31-692, limits assumed, biotin-conjugated (site not stated)).
T2 construct: Coated on streptavidin donor beads; also called PCSK9 (AlphaScreen donor beads)
Briefly: AlphaScreen competition of biotin-PCSK9 binding to His6-LDLR ectodomain. As for the experimental part:
AlphaScreen® (Perkin Elmer) streptavidin donor beads were coated with purified biotin-conjugated PCSK9 and AlphaScreen® nickel chelate acceptor beads were coated with purified His6-conjugated LDLR ectodomain. Competition in the AlphaScreen® PCSK9-LDLR interaction assay was measured, in the presence of increasing concentrations of AnxA2-derived peptides, as a reduction of fluorescence.

Assay [3] addresses T1, PCSK9-V5 (full-length human PCSK9 with …). Briefly: co-immunoprecipitation with anti-V5 from co-transfected CHO-K1 cells. Here is the method:
as §1, with “conditions. (E, upper panel) Media from CHO-K1 cells expressing PCSK9-V5 or the CHRD-V5 were separated by SDS-PAGE (8%), transferred onto nitrocellulose, incubated with purified AnxA2-(His)₆ and probed with the anti-His-HRP antibody.” for “conditions.”

The target is the same in assay [4]. The assay is described as follows: Far Western blot of HEK293 lysates.
The target is the same in assay [5]. Briefly: Far Western blot of lysates of CHO cells overexpressing AnxA1. As for the experimental part:
Lysates (20 to 30 μg protein), media or purified AnxA2-(His)₆ were heated in reducing or non-reducing Laemmli sample buffer, resolved by SDS-PAGE on 8% glycine gels and electro-transferred onto nitrocellulose membranes (GE Healthcare). Following 1 h incubation in 5% skim milk in Tris-Buffered Saline-0.1% Tween (TBST), membranes where incubated with conditioned media of CHO-K1 cells overexpressing either an empty vector (pIRES-V5), PC5A-V5, CHRD-V5, pIRES-D374Y, PCSK9-V5 or its V5-tagged mutants, or incubated with purified AnxA2-(His)₆ for 3 h at room temperature. […] For competition experiments, 10 μg of His-tagged PCSK9 or CHRD were added to the PCSK9-V5 media before Far Western blotting. For PCSK9 binding requirements with the ˜33 kDa protein, 1M NaCl, 10 mg/ml heparin, 1M NaCl+10 mg/ml heparin, or 100 mM EDTA were added to the PCSK9-V5 conditioned media used for Far Western blotting.

Assay [6] addresses T3, ˜33 kDa protein of COS-1 cells, identified as monkey Annexin A2 (AnxA2; XP-001155637) (monkey).
T3 construct: Denatured on nitrocellulose in Far Western blots; native in co-IP; The ˜33 kDa band was also seen in BSC40 and HuH7 lysates; also called endogenous Annexin A2
The assay is described as follows: Far Western blot of COS-1 lysates. As for the experimental part:
All of these were detected by the HRP-tagged V5 mAb. (B) The COS-1 cells soluble fraction (supernatant S3; 3 μg protein) was analyzed by Far Western blot and compared to 30 μg protein loads from other subcellular fractions. […] (D) For competition experiments, purified PCSK9-His or CHRD-His were added to the PCSK9-V5 conditioned media used for Far Western blotting. (E) PCSK9-V5-binding requirements were tested by adding 1M NaCl, 10 mg/ml heparin, 1M NaCl+10 mg/ml heparin, or 100 mM EDTA to the PCSK9-V5 conditioned media used for Far Western blotting. Heavy arrows point to the migration position of the ˜33 kDa protein, and the light arrow to that of the ˜45 kDa protein. (−) denotes a control lane where nothing was added to the Far Western blotting media;
Lysates (20 to 30 μg protein), media or purified AnxA2-(His)₆ were heated in reducing or non-reducing Laemmli sample buffer, resolved by SDS-PAGE on 8% glycine gels and electro-transferred onto nitrocellulose membranes (GE Healthcare). Following 1 h incubation in 5% skim milk in Tris-Buffered Saline-0.1% Tween (TBST), membranes where incubated with conditioned media of CHO-K1 cells overexpressing either an empty vector (pIRES-V5), PC5A-V5, CHRD-V5, pIRES-D374Y, PCSK9-V5 or its V5-tagged mutants, or incubated with purified AnxA2-(His)₆ for 3 h at room temperature. […]

The target of assay [7] is T4, AnxA2 ΔR1-HA (deletion of aa 37-108) (human, UniProt P07355 1-339).
T4 construct: also called Δ37-108 (R1)
The assay is described as follows: Far Western blot of HEK293 lysates.

Values joined by “and” are separate entries in the source; they are usually repeats but may differ in a detail not shown here. Equal entries are not always repeated.

T3 sequence (P07355 2-339): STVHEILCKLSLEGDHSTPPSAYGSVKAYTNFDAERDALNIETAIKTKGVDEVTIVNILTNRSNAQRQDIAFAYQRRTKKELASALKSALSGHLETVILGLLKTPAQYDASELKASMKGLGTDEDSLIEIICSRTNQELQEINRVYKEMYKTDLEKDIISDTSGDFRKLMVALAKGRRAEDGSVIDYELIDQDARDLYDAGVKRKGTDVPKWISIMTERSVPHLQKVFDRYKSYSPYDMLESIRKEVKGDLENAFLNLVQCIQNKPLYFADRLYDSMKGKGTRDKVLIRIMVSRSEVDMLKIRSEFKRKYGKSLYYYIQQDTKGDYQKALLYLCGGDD

B1: purified AnxA1-(His)6 (other)
chain: MAMVSEFLKQAWFIENEEQEYVQTVKSSKGGPGSAVSPYPTFNPSSDVAALHKAIMVKGVDEATIIDILTKRNNAQRQQIKAAYLQETGKPLDETLKKALTGHLEEVVLALLKTPAQFDADELRAAMKGLGTDEDTLIEILASRTNKEIRDINRVYREELKRDLAKDITSDTSGDFRNALLSLAKGDRSEDFGVNEDLADSDARALYEAGERRKGTDVNVFNTILTTRSYPQLRRVFQKYTKYSKHDMNKVLDLELKGDIEKCLTAIVKCATSKPAFFAEKLHQAMKGVGTRHKALIRIMVSRSEIDMNDIKAFYQKMYGISLCQAILDETKGDYEKILVALCGGNHHHHHH
As for B1, the binding result in assay [1] is given as “no binding”.

B2: peptide No 896970 (73-mer AnxA2 R1 peptide extending from amino acids 25 to 97) (peptide)
peptide: GSVKAYTNFDAERDALNIETAIKTKGVDEVTIVNILTNRSNAQRQDIAFAYQRRTKKELASALKSALSGHLET
notes: also called AnxA2 25-97 peptide
Turning to B2, the IC50 in assay [2] is 500 nM to 1 µM (2×) and 750 nM.

B3: AnxA1-HA (human AnxA1 with C-terminal HA epitope) (other)
chain: MAMVSEFLKQAWFIENEEQEYVQTVKSSKGGPGSAVSPYPTFNPSSDVAALHKAIMVKGVDEATIIDILTKRNNAQRQQIKAAYLQETGKPLDETLKKALTGHLEEVVLALLKTPAQFDADELRAAMKGLGTDEDTLIEILASRTNKEIRDINRVYREELKRDLAKDITSDTSGDFRNALLSLAKGDRSEDFGVNEDLADSDARALYEAGERRKGTDVNVFNTILTTRSYPQLRRVFQKYTKYSKHDMNKVLDLELKGDIEKCLTAIVKCATSKPAFFAEKLHQAMKGVGTRHKALIRIMVSRSEIDMNDIKAFYQKMYGISLCQAILDETKGDYEKILVALCGGNYPYDVPDYA
On to B3, for which the binding result in assay [3] is reported as “no binding”.

B4: AnxA2 ΔR3-HA (deletion of aa 193-268) (other)
chain: MSTVHEILCKLSLEGDHSTPPSAYGSVKAYTNFDAERDALNIETAIKTKGVDEVTIVNILTNRSNAQRQDIAFAYQRRTKKELASALKSALSGHLETVILGLLKTPAQYDASELKASMKGLGTDEDSLIEIICSRTNQELQEINRVYKEMYKTDLEKDIISDTSGDFRKLMVALAKGRRAEDGSVIDYELIDYFADRLYDSMKGKGTRDKVLIRIMVSRSEVDMLKIRSEFKRKYGKSLYYYIQQDTKGDYQKALLYLCGGDDYPYDVPDYA
notes: also called Δ193-268 (R3)
B4: the binding result in assay [4] was “binds”.

B5: human Annexin A1 (AnxA1), untagged (other, UniProt P04083 2-346, looked up)
chain: AMVSEFLKQAWFIENEEQEYVQTVKSSKGGPGSAVSPYPTFNPSSDVAALHKAIMVKGVDEATIIDILTKRNNAQRQQIKAAYLQETGKPLDETLKKALTGHLEEVVLALLKTPAQFDADELRAAMKGLGTDEDTLIEILASRTNKEIRDINRVYREELKRDLAKDITSDTSGDFRNALLSLAKGDRSEDFGVNEDLADSDARALYEAGERRKGTDVNVFNTILTTRSYPQLRRVFQKYTKYSKHDMNKVLDLELKGDIEKCLTAIVKCATSKPAFFAEKLHQAMKGVGTRHKALIRIMVSRSEIDMNDIKAFYQKMYGISLCQAILDETKGDYEKILVALCGGN
notes: Overexpressed in CHO cells as control
Take B5: the binding result in assay [5] is reported as “no binding”.

B6: AnxA2 ΔR2-HA (deletion of aa 109-192) (other)
chain: MSTVHEILCKLSLEGDHSTPPSAYGSVKAYTNFDAERDALNIETAIKTKGVDEVTIVNILTNRSNAQRQDIAFAYQRRTKKELASALKSALSGHLETVILGLLKTPAQQDARDLYDAGVKRKGTDVPKWISIMTERSVPHLQKVFDRYKSYSPYDMLESIRKEVKGDLENAFLNLVQCIQNKPLYFADRLYDSMKGKGTRDKVLIRIMVSRSEVDMLKIRSEFKRKYGKSLYYYIQQDTKGDYQKALLYLCGGDDYPYDVPDYA
notes: also called Δ109-192 (R2)
For B6, the binding result in assay [4] is recorded as “binds”.

B7: AnxA2 ΔR4-HA (deletion of aa 269-339) (other)
chain: MSTVHEILCKLSLEGDHSTPPSAYGSVKAYTNFDAERDALNIETAIKTKGVDEVTIVNILTNRSNAQRQDIAFAYQRRTKKELASALKSALSGHLETVILGLLKTPAQYDASELKASMKGLGTDEDSLIEIICSRTNQELQEINRVYKEMYKTDLEKDIISDTSGDFRKLMVALAKGRRAEDGSVIDYELIDQDARDLYDAGVKRKGTDVPKWISIMTERSVPHLQKVFDRYKSYSPYDMLESIRKEVKGDLENAFLNLVQCIQNKPLYPYDVPDYA
notes: also called Δ269-339 (R4)
As to B7, the binding result in assay [4] is on record as “binds”.

B8: CHRD-V5 (C-terminal Cys-His-rich domain of PCSK9, V5-tagged) (other, human, UniProt Q8NBP7 455-692, looked up)
chain: LFCRTVWSAHSGPTRMATAVARCAPDEELLSCSSFSRSGKRRGERMEAQGGKLVCRAHNAFGGEGVYAIARCCLLPQANCSVHTAPPAEASMGTRVHCHQQGHVLTGCSSHWEVEDLGTHKPPVLRPRGQPNQCVGHREASIHASCCHAPGLECKVKEHGIPAPQEQVTVACEEGWTLTGCSALPGTSHVLGAYAVDNTCVVRSRDVSTTGSTSEGAVTAVAICCRSRHLAQASQELQ
notes: domain: CHRD; Conditioned medium of CHO-K1 cells; also called CHRD alone; not shown: C-terminal V5 tag
For B8, the “fold binding against full length PCSK9” value in assay [6] is 3 fold. Further, in assay [7], the binding result is “no binding”.
